Tests used:
[1] = biological target: SPAG9, O60271-2
[2] = biological target: SPAG9, O60271-2; remark: listed apart in the source

Chain of SPAG9, O60271-2 (O60271 other isoform, or with tags, fused parts or gaps): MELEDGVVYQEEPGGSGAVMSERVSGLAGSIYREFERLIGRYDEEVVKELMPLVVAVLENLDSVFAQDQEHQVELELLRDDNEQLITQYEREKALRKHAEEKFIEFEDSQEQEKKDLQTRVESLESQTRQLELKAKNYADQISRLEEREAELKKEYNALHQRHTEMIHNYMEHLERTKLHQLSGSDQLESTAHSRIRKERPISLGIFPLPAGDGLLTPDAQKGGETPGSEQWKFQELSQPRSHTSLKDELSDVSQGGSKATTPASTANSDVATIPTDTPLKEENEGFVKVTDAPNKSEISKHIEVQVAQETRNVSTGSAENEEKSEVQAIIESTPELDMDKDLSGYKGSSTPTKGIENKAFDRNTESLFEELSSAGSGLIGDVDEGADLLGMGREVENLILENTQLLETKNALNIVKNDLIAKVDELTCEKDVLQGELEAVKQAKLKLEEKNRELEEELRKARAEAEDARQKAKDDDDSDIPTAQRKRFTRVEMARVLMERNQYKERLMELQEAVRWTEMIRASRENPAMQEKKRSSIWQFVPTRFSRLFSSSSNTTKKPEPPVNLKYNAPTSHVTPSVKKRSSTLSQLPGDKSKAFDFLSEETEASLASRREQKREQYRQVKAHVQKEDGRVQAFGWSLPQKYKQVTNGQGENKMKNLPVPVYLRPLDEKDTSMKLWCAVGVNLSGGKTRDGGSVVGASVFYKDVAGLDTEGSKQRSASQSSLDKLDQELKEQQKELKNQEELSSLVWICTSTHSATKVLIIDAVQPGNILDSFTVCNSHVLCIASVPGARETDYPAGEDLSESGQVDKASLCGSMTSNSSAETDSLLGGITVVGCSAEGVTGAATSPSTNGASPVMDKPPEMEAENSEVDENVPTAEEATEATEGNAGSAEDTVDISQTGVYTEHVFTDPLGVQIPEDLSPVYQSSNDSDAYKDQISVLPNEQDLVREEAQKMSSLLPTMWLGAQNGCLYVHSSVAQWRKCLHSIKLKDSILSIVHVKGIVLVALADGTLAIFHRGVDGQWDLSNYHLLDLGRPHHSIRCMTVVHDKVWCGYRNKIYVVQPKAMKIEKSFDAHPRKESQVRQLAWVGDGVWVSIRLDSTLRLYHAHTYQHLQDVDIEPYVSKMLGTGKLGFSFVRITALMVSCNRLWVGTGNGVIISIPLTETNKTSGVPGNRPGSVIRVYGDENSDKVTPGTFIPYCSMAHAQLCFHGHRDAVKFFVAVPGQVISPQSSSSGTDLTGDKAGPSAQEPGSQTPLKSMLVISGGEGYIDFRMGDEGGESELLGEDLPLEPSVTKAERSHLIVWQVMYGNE
Chain of ADP-ribosylation factor 1 (Homo sapiens), P84077 S62K (P84077 whole entry S62K): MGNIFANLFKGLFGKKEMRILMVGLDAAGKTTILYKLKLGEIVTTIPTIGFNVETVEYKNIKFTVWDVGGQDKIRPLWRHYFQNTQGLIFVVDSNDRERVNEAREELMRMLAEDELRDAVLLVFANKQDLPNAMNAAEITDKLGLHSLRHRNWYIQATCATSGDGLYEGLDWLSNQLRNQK
Chain of ADP-ribosylation factor 1 (Homo sapiens), P84077 E57T (P84077 whole entry E57T): as the sequence (P84077 whole entry S62K) above, with E57T, K62S counted along it

effect of a mutation on the interaction [1] | effect of a mutation on the interaction [2] | Substance
increasing interaction |  | ADP-ribosylation factor 1 (Homo sapiens), P84077 E57T
increasing interaction |  | ADP-ribosylation factor 1 (Homo sapiens), P84077 Q83T
 | increasing interaction | ADP-ribosylation factor 1 (Homo sapiens), P84077 S62K
 | increasing interaction | ADP-ribosylation factor 1 (Homo sapiens), P84077 T64N
